Measured values published in the supplement of paper PMC7877785.
± gives the uncertainty stated by the source.

Test: self-splicing fitness, log relative to wild type (ln ratio); higher = more splicing; Tetrahymena group I intron in knt gene, E. coli kanamycin selection, DiMSum; sequences stand for … in CUCUCU…GGAGGGAAAAGUUAUCAGGCAUGCACCUGGUAGCUAGUCUUUAAACCAAUAGAUUGCAUCGGUUUAAAAGGCAAGACCGUCAAAUUGCGGGAAAGGGGUCAACAGCCGUUCAGUACCAAGUCUCAGGGGAAACUUUGAGAUGGCCUUGCAAAGGGUAUGGUAAUAAGCUGACGGACAUGGUCCUAACCACGCAGCCAAGUCCUAAGUCAACAGAUCUUCUGUUGAUAUGGAUGCAGUUCACAGACUAAAUGUCGGUCGGGGAAGAUGUAUUCUUCUCAUAAGAUAUAGUCGGACCUCUCCUUAAUGGGAGCUAGCGGAUGAAGUGAUGCAACACUGGAGCCGCUGGGAACUAAUUUGUAUGCGAAAGUAUAUUGAUUAGUUUUGGAGUACUCGUGGUCG
Method in brief: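 A randomised library covering all eight P1ex-region intron nucleotides was built with the intron in the knt kanamycin-resistance gene on pET-22b(+) and held in E. coli BL21(DE3). Cells were grown overnight at 37°C or 30°C on LB agar, with or without 25 μg/mL kanamycin, plus 100 μg/mL carbenicillin, 50 μM IPTG and 0.2% rhamnose, and pooled colonies were amplicon-sequenced on an Illumina HiSeq 2500. DiMSum fitness is the error-weighted combination of wild-type-normalised replicate fold changes, kanamycin versus none.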

Row | Sequence | self-splicing fitness (ln) (30 °C) | self-splicing fitness (ln) (37 °C)
1 | GAUGAGCAAUAUUACGGAUA | -3.94 ± 0.42 | -2.52 ± 0.26
2 | GCGUAGCAAUAUUACGUGGG | -3.84 ± 0.22 | -3.04 ± 0.24
3 | UGUCAGCAAUAUUACGGCCA | -0.139 ± 0.11 | -0.162 ± 0.12
4 | UUCAAGCAAUAUUACGCUUG | -2.15 ± 0.35 | -1.01 ± 0.26
5 | CAUUAGCAAUAUUACGUGAA | -2.94 ± 0.21 | -3.18 ± 0.29
6 | AACUAGCAAUAUUACGCCAG | -1.99 ± 0.16 | -0.848 ± 0.23
7 | GCAGAGCAAUAUUACGAUAA | -3.38 ± 0.41 | -2.72 ± 0.44
8 | GAGUAGCAAUAUUACGCGUU | -2.44 ± 0.095 | -0.8 ± 0.09
9 | GUUUAGCAAUAUUACGUGGA | -2.48 ± 0.21 | -2.89 ± 0.29
10 | AUUUAGCAAUAUUACGUGUA | -2.42 ± 0.23 | -1.5 ± 0.17
11 | UAAAAGCAAUAUUACGCAUG | -0.716 ± 0.068 | -0.257 ± 0.1
12 | AUGGAGCAAUAUUACGACAU | -1.36 ± 0.017 | -0.784 ± 0.035
13 | GCCGAGCAAUAUUACGGUAC | -2.88 ± 0.15 | -0.908 ± 0.24
14 | UGUAAGCAAUAUUACGAACA | -0.358 ± 0.14 | 0.219 ± 0.17
15 | CCUAAGCAAUAUUACGCAAC | -3.08 ± 0.26 | -3.03 ± 0.4
16 | UGAGAGCAAUAUUACGUAAU | -3.22 ± 0.21 | -2.22 ± 0.26
17 | UCCUAGCAAUAUUACGCCCC | -2.75 ± 0.45 | -2.12 ± 0.42
18 | AUACAGCAAUAUUACGACUA | -0.177 ± 0.1 | -0.541 ± 0.089
19 | AAAAAGCAAUAUUACGAUCU | 0.127 ± 0.055 | 0.246 ± 0.075
20 | ACCGAGCAAUAUUACGAAUU | -4.54 ± 0.39 | -1.89 ± 0.21

Row | Sequence | self-splicing fitness (ln) (30 °C) | self-splicing fitness (ln) (37 °C)
21 | CAAGAGCAAUAUUACGGCUU | -3.51 ± 0.39 | -2.36 ± 0.17
22 | UAGAAGCAAUAUUACGAAUA | -1.14 ± 0.12 | -0.376 ± 0.12
23 | GUGUAGCAAUAUUACGGCCG | -0.432 ± 0.22 | -0.71 ± 0.34
24 | CCUGAGCAAUAUUACGACUC | -1.44 ± 0.36 | -1.6 ± 0.49
25 | AAACAGCAAUAUUACGCGUA | -1.64 ± 0.093 | -0.734 ± 0.083
26 | AGCGAGCAAUAUUACGUACA | -2.08 ± 0.31 | -1.89 ± 0.2
27 | CGGCAGCAAUAUUACGCGUA | -1.97 ± 0.29 | -0.576 ± 0.16
28 | AACUAGCAAUAUUACGUAUC | -3.83 ± 0.34 | -2.38 ± 0.29
29 | CUUUAGCAAUAUUACGUUAA | -2.87 ± 0.27 | 
30 | CUCUAGCAAUAUUACGGAGU | -3.04 ± 0.29 | -2.61 ± 0.25
31 | AGCCAGCAAUAUUACGGUGG | -4.22 ± 0.19 | -2.17 ± 0.17
32 | GGACAGCAAUAUUACGCACG | -0.391 ± 0.084 | 0.295 ± 0.1
33 | UCCCAGCAAUAUUACGGCUA | -1.31 ± 0.12 | -1.19 ± 0.12
34 | UUAGAGCAAUAUUACGACGU | -2.39 ± 0.17 | -0.776 ± 0.21
35 | CGACAGCAAUAUUACGGACA | -1.24 ± 0.11 | -0.761 ± 0.12
36 | AAGGAGCAAUAUUACGCCUG | -2.1 ± 0.28 | -0.484 ± 0.44
37 | UCCCAGCAAUAUUACGAGUA | -1 ± 0.072 | -0.558 ± 0.069
38 | UCCGAGCAAUAUUACGCACG | -3.01 ± 0.43 | 
39 | GUGAAGCAAUAUUACGGGAU | -1.1 ± 0.07 | -0.971 ± 0.093
